± gives the uncertainty stated by the source.

The nature of the series: protein stability index of a GFP-peptide fusion (yeast GPS) (PSI 1-4); higher = more stable; sorted into four equal gates, so the index is relative within each strain. Summed up: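 Mid-log yeast cultures in leucine-free medium, carrying a pooled plasmid library, were sorted into four equal gates by their GFP/Cherry fluorescence ratio. Each plasmid expressed Cherry along with GFP fused upstream of a tiled 17-residue yeast protein peptide. Plasmids recovered from each gate were PCR-amplified and Illumina-sequenced, with reads assigned to strains by barcodes. The protein stability index was obtained by summing each gate's read frequency weighted by its gate number.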

In the case of AQYGIKALPIRRDDEVL [RPL26A], the protein stability index by setting is: (doa10∆) 3.63 ± 0.18; (pdr5∆) 3.32 ± 0.17; (san1∆) 3.43 ± 0.061; (ubr1∆) 3.28 ± 0.14.

Take ARAPKYASKAVPHYNRL [RPL25]: the protein stability index by setting is: (doa10∆) 2.94 ± 0.078; (pdr5∆) 3 ± 0.065; (san1∆) 2.79 ± 0.052; (ubr1∆) 2.98 ± 0.047.

ARENAPSIIFIDEVDSI [RPT3]: the protein stability index was found to be 2.75 ± 0.14 (doa10∆), 2.46 ± 0.11 (pdr5∆), 2.74 ± 0.06 (san1∆) and 2.41 ± 0.066 (ubr1∆).

As to ARKGLTPSQIGVLLRDA [RPS13], the protein stability index is, setting by setting: (doa10∆) 2.91 ± 0.26; (san1∆) 2.09 ± 0.21; (ubr1∆) 2.32 ± 0.041.

In the case of ARKHKLKTLVQGPRSYF [RPS27A], the protein stability index reads like this: (doa10∆) 3.15 ± 0.14; (pdr5∆) 3.34 ± 0.19; (san1∆) 2.27 ± 0.14; (ubr1∆) 2.72 ± 0.19.

Turning to ARKYLQTRWGLPSGRQD [FAS2], the protein stability index (doa10∆) was determined as 2.54 ± 0.087, the protein stability index (pdr5∆) is 2.09 ± 0.12, the protein stability index (san1∆) was 2.12 ± 0.14 and the protein stability index (ubr1∆) was 3.16 ± 0.11.

Take ARLPPRATNCRKRKCGH [RPL40A]: the protein stability index (doa10∆) turned out to be 2.98 ± 0.094, the protein stability index (pdr5∆) was 3.3 ± 0.15, the protein stability index (san1∆) was 3.2 ± 0.1 and the protein stability index (ubr1∆) amounted to 3.14 ± 0.11.

For ARNLYIIAVKGSGSRLN [RPL23A], the protein stability index reads like this: (doa10∆) 1.27 ± 0.041; (pdr5∆) 1.19 ± 0.044; (san1∆) 1.22 ± 0.088; (ubr1∆) 1.35 ± 0.042.

Turning to ARTAANSIYCPTQTVAE [RPN6], the protein stability index came out at 2.63 ± 0.062 (doa10∆), 1.76 ± 0.067 (pdr5∆), 1.42 ± 0.11 (san1∆) and 2.04 ± 0.045 (ubr1∆).

The sequence ASDMSDEDIITIFKYLT [CDC53] gave a protein stability index (doa10∆) of 2.84 ± 0.14, a protein stability index (pdr5∆) of 3.09 ± 0.13, a protein stability index (san1∆) of 3.23 ± 0.082 and a protein stability index (ubr1∆) of 3.2 ± 0.061.

On to ASELDESKDSIQDLIVK [SMC3], for which the protein stability index is, setting by setting: (doa10∆) 3.3 ± 0.085; (pdr5∆) 3.04 ± 0.12; (san1∆) 3.18 ± 0.13; (ubr1∆) 3.33 ± 0.14.

On to ASEVATHSKLFADKKRD [PRP8], for which the protein stability index by setting is: (doa10∆) 2.51 ± 0.063; (pdr5∆) 2.69 ± 0.073; (san1∆) 2.31 ± 0.079; (ubr1∆) 2.56 ± 0.068.

As for ASEYIETLGLKYLGLKP [FAS1], the protein stability index is 3.27 ± 0.095 (doa10∆), 3.35 ± 0.093 (pdr5∆), 3.26 ± 0.074 (san1∆) and 3.06 ± 0.089 (ubr1∆).

With ASFFFMVMFMHMAKGLY [COB], the protein stability index (doa10∆) was found to be 1.86 ± 0.046, the protein stability index (pdr5∆) turned out to be 1.58 ± 0.038, the protein stability index (san1∆) is 1.67 ± 0.08 and the protein stability index (ubr1∆) came to 1.4 ± 0.037.

With ASGFGFGGSQPNSGTAT [YGR119C/NUP57], the protein stability index by setting is: (doa10∆) 3.19 ± 0.14; (pdr5∆) 2.74 ± 0.086; (san1∆) 2.4 ± 0.11; (ubr1∆) 2.87 ± 0.094.

Take ASGSINRKVLQALEKIG [RPS19A]: the protein stability index runs as follows: (doa10∆) 1.39 ± 0.071; (pdr5∆) 2 ± 0.12; (san1∆) 1.67 ± 0.11; (ubr1∆) 1.99 ± 0.066.

In turn, ASHNEKDQDSQIELSCN [SRP72] showed a protein stability index (doa10∆) of 2.85 ± 0.079, a protein stability index (pdr5∆) of 2.41 ± 0.079, a protein stability index (san1∆) of 2.9 ± 0.051 and a protein stability index (ubr1∆) of 3.1 ± 0.058.

ASIGQAAEQQSKAFKES [SRP54] gave a protein stability index (doa10∆) of 3.45 ± 0.19, a protein stability index (pdr5∆) of 3.33 ± 0.17, a protein stability index (san1∆) of 3.14 ± 0.096 and a protein stability index (ubr1∆) of 3.16 ± 0.082.

Regarding ASKKFGKICLILTRLNG [SSN2], the protein stability index amounted to 1.99 ± 0.17 (doa10∆) and 2.14 ± 0.27 (pdr5∆).

Turning to ASKSGKLTQKLVTAGVA [CYT1], the protein stability index is 1.85 ± 0.068 (doa10∆), 1.83 ± 0.057 (pdr5∆), 2.45 ± 0.062 (san1∆) and 1.95 ± 0.048 (ubr1∆).

ASLHSKELTRIPGEEVE [MED4]: the protein stability index stood at 2.97 ± 0.12 (doa10∆), 3.29 ± 0.18 (pdr5∆) and 3.03 ± 0.12 (san1∆).

On to ASLNALKESIKNSTSSM [RPN1], for which the protein stability index (doa10∆) stood at 3.07 ± 0.087, the protein stability index (pdr5∆) is 3.25 ± 0.098, the protein stability index (san1∆) was found to be 3.06 ± 0.063 and the protein stability index (ubr1∆) was determined as 3.16 ± 0.076.

Turning to ASLQQQQQQDLQQQQQV [SNF6], the protein stability index is 2.66 ± 0.26 (doa10∆), 2.7 ± 0.17 (pdr5∆) and 2.69 ± 0.21 (ubr1∆).

For ASRHGQKGTIGITYRRE [RPB2], the protein stability index reads like this: (doa10∆) 2.53 ± 0.08; (pdr5∆) 1.84 ± 0.051; (san1∆) 2.39 ± 0.082; (ubr1∆) 2.22 ± 0.051.

In turn, ASSKAVTRGISVLKDSD [PRE1] came in with a protein stability index (doa10∆) of 2.4 ± 0.058, a protein stability index (pdr5∆) of 2.76 ± 0.05, a protein stability index (san1∆) of 2.89 ± 0.051 and a protein stability index (ubr1∆) of 2.67 ± 0.052.

ASSSAKLIEKKSAYANT [SMC2]: the protein stability index is, setting by setting: (doa10∆) 2.82 ± 0.1; (pdr5∆) 2.55 ± 0.055; (san1∆) 2.73 ± 0.079; (ubr1∆) 2.79 ± 0.042.

Source of the values: the supplement of paper PMC9732359.
